Here are results for 4 molecules from paper PMC5452015, “Sen1 has unique structural features grafted on the architecture of the Upf1‐like helicase family” (The EMBO Journal, 2017).

Residue numbers refer to the chain shown, from its start.

Series [1] has as its target T1, Sen1Hel (crystal construct, loop 1,471-1,538 removed) (Saccharomyces cerevisiae, UniProt Q00416, DEL1471-1538).
T1 construct: gene SEN1; helicase core 1095-1904 with disordered loop 1471-1538 replaced by a (Gly-Ser)2 linker; C-terminal CPD-His8 tag cut off with 3C; expressed in E. coli; model covers 1096-1875
T1 sequence (Q00416 with tags, fused parts or gaps DEL1471-1538): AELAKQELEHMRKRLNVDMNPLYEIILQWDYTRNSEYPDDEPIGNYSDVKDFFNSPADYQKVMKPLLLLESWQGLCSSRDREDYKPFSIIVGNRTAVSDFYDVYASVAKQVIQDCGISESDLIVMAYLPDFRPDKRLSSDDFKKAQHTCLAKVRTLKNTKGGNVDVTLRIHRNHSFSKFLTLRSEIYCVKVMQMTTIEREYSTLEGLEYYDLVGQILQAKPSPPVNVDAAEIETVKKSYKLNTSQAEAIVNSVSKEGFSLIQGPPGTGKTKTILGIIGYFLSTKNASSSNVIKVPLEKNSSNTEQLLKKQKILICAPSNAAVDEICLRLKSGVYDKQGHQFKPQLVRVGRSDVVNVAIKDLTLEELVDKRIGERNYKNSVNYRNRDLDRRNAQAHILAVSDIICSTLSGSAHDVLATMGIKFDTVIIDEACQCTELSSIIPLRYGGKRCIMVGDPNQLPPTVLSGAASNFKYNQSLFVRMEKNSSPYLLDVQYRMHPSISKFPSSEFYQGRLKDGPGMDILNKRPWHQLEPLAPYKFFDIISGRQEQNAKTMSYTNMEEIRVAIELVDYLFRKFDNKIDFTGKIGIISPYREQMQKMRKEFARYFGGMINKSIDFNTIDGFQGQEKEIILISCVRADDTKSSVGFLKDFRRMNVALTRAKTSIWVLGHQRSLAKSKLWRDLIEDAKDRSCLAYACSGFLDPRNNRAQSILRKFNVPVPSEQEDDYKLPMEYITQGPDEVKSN
Description: X-ray crystal structure, […] A. In kind it is binding. The note with it: 10-fold molar excess ADP, HEPES pH 7.5, 4 C; nucleotide site on RecA1, no RNA.

Series [2] has as its target T2, Sen1Hel (Saccharomyces cerevisiae, UniProt Q00416).
T2 construct: gene SEN1; helicase core 1095-1904, ~90 kDa; C-terminal CPD-His8 tag cut off with 3C protease; expressed in E. coli BL21 (DE3) STAR pRARE
T2 sequence (Q00416 1095-1904): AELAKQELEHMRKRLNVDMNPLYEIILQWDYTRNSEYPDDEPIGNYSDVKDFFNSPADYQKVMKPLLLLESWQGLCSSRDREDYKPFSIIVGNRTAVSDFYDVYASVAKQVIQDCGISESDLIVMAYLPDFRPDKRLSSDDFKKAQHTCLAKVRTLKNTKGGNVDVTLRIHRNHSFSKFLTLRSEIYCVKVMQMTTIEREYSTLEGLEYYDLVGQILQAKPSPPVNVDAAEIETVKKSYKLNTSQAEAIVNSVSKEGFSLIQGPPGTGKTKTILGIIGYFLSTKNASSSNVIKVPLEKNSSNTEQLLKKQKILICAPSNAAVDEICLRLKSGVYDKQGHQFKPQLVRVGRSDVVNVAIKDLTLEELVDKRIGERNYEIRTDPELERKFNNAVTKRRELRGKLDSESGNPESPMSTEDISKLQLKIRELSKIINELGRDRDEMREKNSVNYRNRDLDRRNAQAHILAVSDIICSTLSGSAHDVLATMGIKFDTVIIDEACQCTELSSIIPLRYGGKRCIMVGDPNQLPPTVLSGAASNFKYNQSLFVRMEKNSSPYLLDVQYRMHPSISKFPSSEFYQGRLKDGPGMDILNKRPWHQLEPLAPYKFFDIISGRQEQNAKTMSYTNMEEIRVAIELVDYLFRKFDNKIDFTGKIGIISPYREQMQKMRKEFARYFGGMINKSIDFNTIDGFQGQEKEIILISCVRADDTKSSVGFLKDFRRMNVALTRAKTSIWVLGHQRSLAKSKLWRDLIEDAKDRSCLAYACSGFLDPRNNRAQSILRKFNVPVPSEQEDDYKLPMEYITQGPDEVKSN
The series can be described thus: ATP hydrolysis, alpha-32P-ATP, thin-layer chromatography. It is filed as biochemical. The note with it: polyU 50 ng/ul, 250 uM ATP, 1 mM MgCl2, pH 7.5, 28 C.

The target of series [3] is T3, Sen1Hel (wild type) (Saccharomyces cerevisiae, UniProt Q00416 1095-1904).
T3 sequence: T2 sequence (Q00416 1095-1904)
Description: EMSA; high-order complexes at high protein; FA: 20 mM Hepes pH 7.5, 300 mM NaCl, 2 mM MgCl2, 1 mM DTT, 20 C, 10 nM RNA; EMSA: 2 nM RNA, 10-160 nM protein (buffer not in the material). Particulars: protein: recombinant; tags: C-terminal CPD-His8 removed by 3C; label: 5' fluorescent label.

Series [4] concerns the target T4, Sen1Hel deltaLP (Saccharomyces cerevisiae, UniProt Q00416 1095-1904, del1461-1554).
T4 sequence: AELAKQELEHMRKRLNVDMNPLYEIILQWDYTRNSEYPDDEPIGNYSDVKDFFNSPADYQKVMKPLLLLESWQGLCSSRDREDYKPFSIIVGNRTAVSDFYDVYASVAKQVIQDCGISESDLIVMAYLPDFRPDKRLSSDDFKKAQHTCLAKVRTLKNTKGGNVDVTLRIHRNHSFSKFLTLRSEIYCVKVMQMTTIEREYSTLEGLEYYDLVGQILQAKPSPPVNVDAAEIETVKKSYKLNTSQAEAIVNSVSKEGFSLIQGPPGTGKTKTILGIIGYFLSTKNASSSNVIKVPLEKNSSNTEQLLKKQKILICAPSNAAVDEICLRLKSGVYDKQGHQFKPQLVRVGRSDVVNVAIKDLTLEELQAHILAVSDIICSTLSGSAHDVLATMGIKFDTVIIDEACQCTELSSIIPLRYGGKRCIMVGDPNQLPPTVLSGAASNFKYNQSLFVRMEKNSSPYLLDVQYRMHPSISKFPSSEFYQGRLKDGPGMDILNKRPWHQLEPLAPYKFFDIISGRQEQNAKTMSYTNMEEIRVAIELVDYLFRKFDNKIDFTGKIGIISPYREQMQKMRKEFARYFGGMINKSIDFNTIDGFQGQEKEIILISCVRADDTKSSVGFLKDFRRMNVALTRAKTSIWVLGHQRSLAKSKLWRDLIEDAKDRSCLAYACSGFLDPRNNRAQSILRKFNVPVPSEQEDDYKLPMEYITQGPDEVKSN
The series can be described thus: EMSA; FA: 20 mM Hepes pH 7.5, 300 mM NaCl, 2 mM MgCl2, 1 mM DTT, 20 C, 10 nM RNA; EMSA: 2 nM RNA, 10-160 nM protein (buffer not in the material). Particulars: protein: recombinant; tags: C-terminal CPD-His8 removed by 3C; label: 5' fluorescent label.

The target of series [5] is T5, Sen1Hel N1413S (Saccharomyces cerevisiae, UniProt Q00416 1095-1904, N1413S).
T5 sequence: T2 sequence (Q00416 1095-1904) with N319S
Description: fluorescence anisotropy; 2 mM Mg2+; text says impaired; FA: 20 mM Hepes pH 7.5, 300 mM NaCl, 2 mM MgCl2, 1 mM DTT, 20 C, 10 nM RNA; EMSA: 2 nM RNA, 10-160 nM protein (buffer not in the material). The note with it: protein: recombinant; tags: C-terminal CPD-His8 removed by 3C; label: 5' fluorescein.

Series [6] addresses T3, Sen1Hel (wild type). The series can be described thus: fluorescence anisotropy; 2 mM Mg2+; FA: 20 mM Hepes pH 7.5, 300 mM NaCl, 2 mM MgCl2, 1 mM DTT, 20 C, 10 nM RNA; EMSA: 2 nM RNA, 10-160 nM protein (buffer not in the material). The note with it: protein: recombinant; tags: C-terminal CPD-His8 removed by 3C; label: 5' fluorescein.
Series [7] has as its target T6, Sen1Hel P1622L (Saccharomyces cerevisiae, UniProt Q00416 1095-1904, P1622L).
T6 sequence: T2 sequence (Q00416 1095-1904) with P528L
The description is as above. Particulars: protein: recombinant; tags: C-terminal CPD-His8 removed by 3C; label: 5' fluorescein.

With `Nc1ncnc2c1ncn2[C@@H]1O[C@H](COP(=O)(O)OP(=O)(O)O)[C@@H](O)[C@H]1O` [ADP], in series [1], the “X-ray crystal structure, 1.8 A” value is “We crystallized Sen1Hel in the presence of ADP and determined the structure”.
Regarding `Nc1ncnc2c1ncn2[C@@H]1O[C@H](COP(=O)(O)OP(=O)(O)OP(=O)(O)O)[C@@H](O)[C@H]1O` [ATP], the “ATP hydrolysis, alpha-32P-ATP, thin-layer chromatography” value in series [2] is given as “Sen1Hel showed levels of RNA‐dependent ATPase activity similar to those of full‐length Sen1”.

B1: DL3316 44-mer RNA (ssRNA)
RNA: UUCAUUUCAGACCAGCACCCACUCACUACAACUCACGACCAGGC
Regarding B1, the binding result in series [3] and in series [4] was “binds” throughout.

B2: ARE 15-mer AU-rich RNA (ssRNA)
RNA: UUUCUAUUUAUUUUG
As to B2, the binding result in series [5] is “no binding”. The Kd was ~0.6 µM in series [6] and ~6.4 µM in series [7].
